These results are taken from patent US11672867B2, “Protein-templated self-assembly of a covalent polymer network for intracellular trafficking and traceless release” (University of Massachusetts, priority 2017, dated 2023).

Series [1] can be described thus: Dynamic light scattering particle size. Format: physicochemical. To be noted: 1 mg/mL, phosphate buffer pH 7.4. On the procedure:
(§1) Dynamic light scattering (DLS) and zeta potential measurements were performed using a Malvern Nanozetasizer-ZS. All samples were diluted with phosphate buffer pH 7.4 to adjust final concentration to 1 mg/mL.

A short description of series [2]: Release kinetics of proteins from nanoassemblies (DTT, SDS-PAGE). To be noted: reducing conditions (DTT). As for the experimental part:
30 μL of different samples containing NA-Empty^ED, NA-Empty^PEG, NA-Lys^ED, NA-Lys^PEG, NA-RNaseA^ED, NA-RNaseA^PEG, NA-CytC^ED and NA-CytC^PEG were mixed with 10 μL of loading buffer (DTT free) and 25 μL of each sample was loaded on acrylamide gel. For release experiment, identical protein-polymer conjugate samples were treated with 10 mM DTT and incubated at 37° C. for 4 h before subjecting to acrylamide gel electrophoresis. To calculate the amount of released protein from each sample, standard curves were generated from the known concentrations of pure protein samples loaded into the gel lanes. The gel image analysis and quantification were performed with Bio-Rad Image Lab™ software.
To monitor the release kinetics of proteins (lysozyme, RNase A and cytochrome C), 30 μL of NA-Lys^ED, NA-Lys^PEG, NA-RNaseA^ED, NA-RNaseA^PEG, NA-CytC^ED and NA-CytC^PEG samples were incubated at 37° C. with requisite amounts of 10 mM DTT for different time intervals. After each incubation time, samples were collected and immediately frozen at −20° C. Finally, all samples were subjected to SDS-PAGE analysis to quantify the amount of released proteins. Encapsulation and release studies with variations in DTT concentrations and crosslinker concentrations were carried out using similar experimental protocols.

The next series relates to HeLa cells. The series is described as follows: Cell viability with alamarBlue assay. The series is classed as cell-based, Human. To be noted: 72 h. On the procedure:
Human cervical carcinoma (HeLa) cells were cultured in T75 cell culture flask containing Dulbecco's Modified Eagle Medium/Nutrient Mixture F-12 (DMEM/F12) in a humidified incubator with 5% CO2 at 37° C. Culture media was supplemented with 10% fetal bovine serum (FBS), 1% L-glutamine and 1% antibiotic-antimycotic (100 units/mL of penicillin, 100 μg/mL of streptomycin, and 0.25 μg/mL of Amphotericin B).
HeLa cells were seeded into 96-well tissue culture plates at a density of 5000 cells/well/100 μL sample and incubated at 37° C. After 24 h, culture media was replaced and cells were treated with different concentrations of protein-polymer conjugates and control protein samples (0.1 mg/mL to 2 mg/mL protein concentration) in 100 μL media. All samples were incubated for 6 h at 37° C., then the media was replaced and incubated for another 66 h at 37° C. Afterwards media was replaced, washed with PBS buffer for three times and each well was treated with 100 μL 10% alamarBlue in media with serum. Finally, samples were incubated for 1 h and subjected to fluorescence measurement with SpectraMax® M5 at 560 nm excitation/590 nm emission wavelength in a black 96-well flat bottomed plate. Cellular viability of the small molecule byproducts were assessed using a similar protocol.

Series [3] can be described thus: Calculation of number of proteins per particle. Format: physicochemical. To be noted: from DLS diameters, sphere packing efficiency ~74%. From the text: Calculation of Number of Proteins Per Particle: Example for NA-Lys^ED: Diameter of nanoassembly, D=9.7 nm, radius, R=4.85 nm Volume of each particle, VPPC=(4/3)πR^3=(4/3) π(4.85)^3 nm^3=477.6×10^−21 cm^3 Again, for lysozyme, diameter of protein, d=3.6 nm, radius, r=1.8 nm Volume of each protein, VLy=(4/3)πr^3=(4/3) π(1.8)^3 nm^3=24.4×10^−21 cm^3 Assuming that maximum sphere packing efficiency to be ˜74%,^ii number of lysozyme per nanoassembly to be=(477.6×10^−21/24.4×10^−21)×(0.74)=14 The results for all other nanoassemblies are summarized below: […]

The nature of series [4]: Zeta potential measurement. Format: physicochemical. As to conditions: 1 mg/mL, phosphate buffer pH 7.4. On the procedure:
as §1

Series [5] is described as follows: Crosslinking density from released 4-nitrophenol (UV-Vis, 400 nm). The series is classed as physicochemical. To be noted: adjusted for ~1% hydrolysis of control polymer. As for the experimental part: The conjugation process and cross-linking density for the protein-polymer conjugates can be evaluated by UV-Vis spectroscopy. The amount of released 4-nitrophenol was monitored at its λmax 400 nm (measured molar extinction co-efficient≈12.14*10^3 L M^−1 cm^−1 at 400 nm). For each absorbance measurement, samples were diluted to twenty times, for e.g. 50 μL of sample was diluted 1 mL with distilled water. Cross-linking density was calculated by assuming that formation of a single chain crosslinking bond would require cleavage of two NPC units and produce two 4-nitrophenol molecules.
Ratio of NPC:PEG in the polymer, P1=50:50
Molecular weight of repeating NPC-unit=387 g/mol
Amount of polymer used=0.1 mg/mL for each absorbance measurement
From Beer-lamber's law: A=ε.c.1 and path-length=1 cm
Thus, moles of 4-nitro phenol in 1 mL solution=3.04*10^−8
This represents is 23.5 mol % of total NPC unit. As it is assumed that two 4-nitro phenol are released per crosslinking bond formation and NPC unit is 50 mol % of total polymer. Therefore, crosslinking density=23.5/2*0.5=5.9%
Hydrolysis from control polymer sample contributes ˜1% towards cross-linking density and adjusted for all calculations. Crosslinking densities for all other conjugates were calculated based on the above method and summarized below: […]

Series [6] in a line: Encapsulation efficacy and loading capacity (Pierce 660 nm Protein Assay of filtrate). Format: physicochemical. As to conditions: for Amount of protein encapsulated, μg (Initial dose = 1 mg): 10 mg P1, 1 mg protein, back-calculated from filtrate. As for the experimental part: All nanoassemblies were evaluated for amount of protein encapsulation after conjugation and cross-linking process. Protein concentration in each sample was measured from the filtrate after crosslinking reaction and the amount of protein was back-calculated in the conjugate. An absorbance based assay (with Pierce™ 660 nm Protein Assay Reagent) was utilized to quantify the protein amount. The encapsulation efficiency (EE) and loading capacity (LC) were calculated based on the following formulas: […]

Consider cytochrome C, for which the “Size, nm (hydrodynamic diameter, DLS)” value is given as 4.3 ± 0.1 nm in series [1] and roughly 4 nm in series [1] (listed as native CytC). In series [2], the “Order of overall kinetics of protein release” value (“Order” below) was “CytC<RNaseA<Lys”. For the same molecule, the Cell viability result in the series on HeLa cells was “lack of toxicity”.

In the case of lysozyme, the “Size, nm (hydrodynamic diameter, DLS)” value in series [1] is on record as 3.6 ± 0.4 nm. For the same molecule, in series [2], the “Order” value is “CytC<RNaseA<Lys”.

B1: ribonuclease A (protein, UniProt P61823 27-150, looked up)
Ribonuclease pancreatic: KETAAAKFERQHMDSSTSAASSSNYCNQMMKSRNLTKDRCKPVNTFVHESLADVQAVCSQKNVACKNGQTNCYQSYSTMSITDCRETGSSKYPNCAYKTTQANKHIIVACEGNPYVPVHFDASV
notes: native protein from Sigma-Aldrich, model cargo
As to B1, in series [1], the “Size, nm (hydrodynamic diameter, DLS)” value is given as 3.3 ± 0.2 nm. In addition, in series [2], the “Order” value is “CytC<RNaseA<Lys”.

B2: NA-RNaseA^ED: RNase A conjugated to polymer P1 and crosslinked with ethylenediamine; nanoassembly (conjugate, UniProt P61823 27-150, looked up)
Ribonuclease pancreatic: B1 Ribonuclease pancreatic
modifications: polymer P1 conjugate, ethylenediamine-crosslinked nanoassembly
B2: the “# of Protein per PPC particle” value in series [3] was 16. The “Zeta potential, mV” value in series [4] is −8.2 ± 0.7 mV. For the same molecule, the “Crosslinking density, %” value in series [5] was 5.1%. Moreover, the “Size, nm (hydrodynamic diameter, DLS)” value in series [1] amounted to 9.1 ± 0.1 nm. Moreover, in series [6], the “Loading capacity (LC), %” value came to 5.6% and the “Amount of protein encapsulated, μg (Initial dose = 1 mg)” value was 558 µg.

B3: NA-RNaseA^PEG: RNase A conjugated to polymer P1 and crosslinked with (PEO)4-bis-amine; nanoassembly (conjugate, UniProt P61823 27-150, looked up)
Ribonuclease pancreatic: B1 Ribonuclease pancreatic
modifications: polymer P1 conjugate, PEO4-bis-amine crosslinked nanoassembly
notes: RNase A conjugated to polymer P1 and crosslinked with (PEO)4-bis-amine; nanoassembly
Consider B3, for which the “# of Protein per PPC particle” value in series [3] is reported as 18. Besides, the “Zeta potential, mV” value in series [4] is reported as −8.7 ± 0.7 mV. Further, in series [5], the “Crosslinking density, %” value came out at 5.1%. Moreover, in series [1], the “Size, nm (hydrodynamic diameter, DLS)” value is 9.5 ± 0.1 nm. In addition, in series [6], the “Loading capacity (LC), %” value amounted to 5.5% and the “Amount of protein encapsulated, μg (Initial dose = 1 mg)” value was 553 µg.
